± gives the uncertainty stated by the source.
Test: amyloid nucleation score (Sup35N fusion, yeast selection) (log enrichment); library NNK1; higher = more nucleation; inactive = no reads after selection
Outline: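 Psi-negative yeast expressed Sup35N fused to peptides of 20 random codons. They were induced 24 hours with 100 μM copper sulfate, grown 7 days at 30°C without adenine and uracil, and their plasmid inserts from input and output were Illumina-sequenced. The nucleation score is the DiMSum log enrichment of output over input reads, centred on the mode score of non-aggregating sequences. Sequences with under 100 input reads were excluded.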

Row | Substance | amyloid nucleation score
1 | DNLLEAASNNIIEYVCSPLE | 0.501 ± 0.44
2 | RMLIDGLSLVVDWRYVVEGG | -0.192 ± 0.31
3 | EEYNVNCTSFVGRFSRC | -0.008 ± 0.5
4 | ESDPGCPVAVIKGPCT | 0.225 ± 0.8
5 | YYNFCMDRRLLDNGTNGSKS | -0.016 ± 1.7
6 | TFCLLSINLEFINVLRLFKS | 3.58 ± 0.12
7 | VIVCIEAAAETYSTGQSLDA | -0.15 ± 0.3
8 | IASMSVFPSHMCFVGTSTVR | -0.417 ± 0.34
9 | FHPAMVVICILWHKR | 1.62 ± 0.37
10 | NCYMT | 0.386 ± 0.31
11 | RIIQGFLAM | -0.153 ± 1.4
12 | WRGLPSNG | 0.024 ± 0.36
13 | DDNGPTYR | inactive
14 | RERIECDWTGLAFGDPKVSV | -0.646 ± 2.1
15 | DDLSGRRELTLRQT | 0.618 ± 0.49
16 | LHHRSLFDCESNTAGSPRFV | -0.279 ± 0.47
17 | EVDFNSSFTWSHMSSKCRMF | -0.046 ± 0.54
18 | FRPMEWLTFCSVRGLLLTIP | inactive
19 | GRCLCGLVDDYFYNAYWVLP | -0.555 ± 0.35
20 | IKLQWS | -0.323 ± 0.53
21 | TIDIV | 2.28 ± 0.13
22 | VGPRGSGPWGGVCLCGCSKE | 1.11 ± 0.51
23 | SFALLTQLNEYKTARMKRAG | 0.64 ± 0.35
24 | SVYVGRGHFLQKFRRLLRFE | inactive
25 | CTIRYWF | 1.5 ± 0.42

Row | Substance | amyloid nucleation score
26 | LFFRIYDHCNEHEKCVV | inactive
27 | CLLFTEMFTPLVEVAESM | -0.038 ± 0.48
28 | RNINLANHGCSSISLVYLPS | 2.8 ± 0.21
29 | RSVFEKNWVGCITEMTIWFA | -0.47 ± 0.73
30 | SGMYRTNTAMFSFYDTTIVI | -0.091 ± 0.84
31 | TDSCYHCNLYMYHSS | 0.723 ± 0.9
32 | SCPKVITNVLSSKTYPRMVG | 1.11 ± 0.34
33 | LIIVRSMSNDGSIVGSQAWP | 8.152 ± 0.073
34 | PSMARPAARTHVDNNRWR | -0.051 ± 0.56
35 | YLTWYNRYCVRYITNYHPMK | 5.96 ± 0.079
36 | IPKVRTRVLGIISTTSLLGG | 0.037 ± 0.97
37 | FRNCVF | -0.141 ± 0.49
38 | KLPIAGCYRVINCTVRGE | -0.008 ± 0.26
39 | FMLSFDTTFPLKVLIRTSPE | -0.858 ± 0.85
40 | SSWQGLRNLHGSYEDQINVK | 4.17 ± 0.073
41 | NVSYRSYRFVHWVNLVGSMA | inactive
42 | SLWITFLPLIGLSAVRRRVR | -1.24 ± 1.4
43 | IRISVAVHVIVMNYMYPYLI | -0.44 ± 1.2
44 | FRKLAIFHLAE | 0.207 ± 0.69
45 | TSSDCLLDSSIFNVGKFWYV | 0.019 ± 0.53
46 | CEKTWNLRDCSGLLQVTRG | 0.099 ± 0.29
47 | RGFLRRHGGKGFNVLQAVGR | 1.16 ± 0.72
48 | DWVVFWIRSFILSPPRAHQN | 0.025 ± 0.41
49 | QDYGDDLRSGFRGYLSSPQG | 0.264 ± 0.32
50 | DWNSNPPHSASAGLPLRFWK | inactive

Row | Substance | amyloid nucleation score
51 | PVGVKGVQMVLS | -0.226 ± 0.83
52 | YCTTAIGSKSLVDIWHAGCS | -0.412 ± 1.2
53 | YDFTDFPSPTFRYFVLIGNA | 0.333 ± 0.54
54 | YNSFKAVNPLKVGLVYMLKL | 0.021 ± 0.55
55 | SPIVGTLFYFMLWNMSAHTR | 1.96 ± 0.26
56 | MVLRHRKCLSAFPWAFHAPY | 1.49 ± 0.85
57 | RGSKVFSSDALVSRLARRVG | -0.462 ± 0.5
58 | KCYIVSLNNVGCFTNASS | 5.13 ± 0.072
59 | YSAVWRSMYTQNLWVPTGMG | 1.83 ± 0.27
60 | VSTIFHIGFVLKFRDYRESE | 2.93 ± 0.18
61 | HGYFSNMWSYRRYQLLKLSP | 0.664 ± 0.77
62 | CENVIEFNENVKG | 0.503 ± 0.29
63 | LRIERMWVWVSA | 0.556 ± 0.65
64 | TKGFLSNGFLVWPVCIVILW | 0.387 ± 0.77
65 | FFHFTVSGMPGYSRSY | 2.73 ± 0.17
66 | FSSCRPMIYLRCTEYNG | -0.41 ± 1.9
67 | SNSGIKGFGGMIPRV | 3.92 ± 0.1
68 | LHLERALLTNRLFRS | 0.077 ± 0.49
69 | SNFGCFYCLLIPRNKKLGLG | 1.67 ± 0.47
70 | KVCLRRAAYYRVLVHSCHFR | -0.585 ± 0.43
71 | LDRKIK | 0.651 ± 0.39
72 | GMSGYKKFCSGIWWSLNQCS | 0.408 ± 0.42
73 | GHLENPFDERASCWRITADG | 1.25 ± 0.74
74 | RGSWIPVKQRLKVPQRDGLG | 0.207 ± 0.28
75 | SSKCDLIDCSSD | inactive

Row | Substance | amyloid nucleation score
76 | WGICAVLHLMTIIGLIRVER | inactive
77 | NGHSVASSVDAVMLCRYRGK | 0.688 ± 0.69
78 | VFDAKGLNAHFNEVNVVYIR | 4.77 ± 0.062
79 | TTRCVFSPDNVDTDY | inactive
80 | GCYWIMAMGQILRRLEDAAG | 1.14 ± 0.72
81 | GCCSEDFNINGVFCSCPKFC | 7.157 ± 0.057
82 | KSGTAFLFFKMI | 0.399 ± 0.31
83 | EIRKNTASMIMKLCIYIVGA | -0.007 ± 0.45
84 | KVEVWRVLGNSVQRRFSKDQ | 0.353 ± 1.1
85 | KWVEIITLCMEIWNLYIVCE | -0.048 ± 0.92
86 | DFARNQDGSFVWN | -0.575 ± 0.36
87 | LNHSAIRHTVSGLNPWSWAG | -0.288 ± 1.5
88 | KLNLKFYAFYNM | 5.49 ± 0.073
89 | YSSLRGWLC | inactive
90 | IVFNIYLILAKWWVTVTYSD | -1.25 ± 0.5
91 | CNHSTSFVEVVERL | -0.085 ± 0.42
92 | LIGRRGLHYLF | -0.186 ± 1.9
93 | SKAKYGESSVWRVGLMGCF | -1.06 ± 0.83
94 | NWGAISISDRGPQKTDTAWT | -0.048 ± 0.48
95 | MWLKSNNWRNKADDLQGKVD | 0.523 ± 0.58
96 | GQQLCVIFYSTCDSYKMLSD | 3.26 ± 0.089
97 | FPSLFFLLA | inactive
98 | YFSVGSCNRYLHWTVQ | 5.06 ± 0.075
99 | YLINLRFCEREAGFNFLLGR | -1.12 ± 2.7
100 | FTIIFSTYISMVVVDLRVVP | -0.409 ± 0.36

Row | Substance | amyloid nucleation score
101 | KCIGKHEAVMKIFNWDEENW | 1.73 ± 0.49
102 | TIVSDGAQDFQHHS | inactive
103 | YLWILDMAREDELHATCSGE | -0.558 ± 0.66
104 | VFFSYINCLRF | 0.218 ± 0.45
105 | QMLQVPYQSFVALGVAWVRT | 0.646 ± 0.66
106 | KLIVWDKCSTCHSDVVLLFK | 0.734 ± 0.97
107 | NMGTVMYGVIQACRAHVNVV | 0.22 ± 0.45
108 | CFNTRHRVQELRL | -0.224 ± 1.7
109 | CYLPWDSKNGVEDLYWYEFK | 1.79 ± 0.13
110 | IDEVEGIRRFGLWELRLVCP | -0.225 ± 0.28
111 | TFGSVGYI | 0.116 ± 0.45
112 | SVTWSYVTHLLLWLFGGAGL | 0.848 ± 0.76
113 | YLDSSFFCFLVAIKMDDARH | 6.08 ± 0.087
114 | QVRGTEVPVSIAVGLGTSRL | 1.05 ± 0.66
115 | MITWMYASWYNRPVLVYQFW | 0.233 ± 0.28
116 | CMTPS | inactive
117 | WFEVNSACQLSNLGGLTEFR | -0.417 ± 1.4
118 | WVHVCGGHCNWLICSMASNG | 7.889 ± 0.061
119 | MLPQSSSRQLRVGCASLCNM | -0.148 ± 0.6
120 | WSTFYLFLSLDWKNYT | inactive
121 | IDRSLETTTVRGLVVRCYNG | 0.369 ± 0.35
122 | TYWYSHINFLYYIASFVWSP | inactive
123 | PFHLF | 0.831 ± 0.39
124 | CLVVPCD | 0.151 ± 0.42
125 | CCRSRLLIITRTVSTAGDSR | -0.54 ± 1.3

Row | Substance | amyloid nucleation score
126 | TFVLYGCDRKVFRRNVVTAS | 0.316 ± 0.35
127 | VGWSMWNMIRMMVVPVAGPG | 0.253 ± 0.35
128 | IFAMV | inactive
129 | PWYTRLRRK | -0.338 ± 1.4
130 | ISPRHNYPQILMVLLIKVYF | -1.33 ± 1.3
131 | GSVLKLYRGITHSRNERRGP | -0.171 ± 1.1
132 | TPSTQLALWAIYFHRRLFES | -0.54 ± 1.3
133 | QYFKNDVKYVPFG | -0.514 ± 1.1
134 | LYIFLNEDDRFSMKQGVKGG | 0.546 ± 0.83
135 | IWMWEWQHCSEARKNMMWVS | 2.1 ± 0.13
136 | RFNREFMSSSVLRSWNDGYG | -0.635 ± 0.62
137 | GWYFPILRDLRNVGGVF | -0.677 ± 1.1
138 | SEEGGNTASNRVDWYTTGIV | 0.95 ± 0.48
139 | FNLISGKIGYRLLQTCIMMM | -0.963 ± 0.51
140 | YGNKTYFAPR | 0.557 ± 0.51
141 | VTLGHHDRSCFYEDSVQTRD | 0.832 ± 0.49
142 | LRYASEGSKFFVWNLTYLNR | -0.147 ± 1.2
143 | FNHMLSMVGSRVCYLAMSFV | 0.17 ± 0.58
144 | NCLRNWHKFI | -0.845 ± 0.7
145 | IRAFSWTIMLLFYCWWHVEN | 0.402 ± 0.86
146 | LCALG | -0.434 ± 1.2
147 | NVNHSPSGMARRGSHRYKNS | -0.218 ± 0.34
148 | ELVLSSSWFRRNSYALCKLR | 0.716 ± 1
149 | SFIPKVGCKKEPARRASGNV | 0.413 ± 1.4
150 | PFIARAFKLMLAWVLFCRAA | 0.171 ± 0.75

Row | Substance | amyloid nucleation score
151 | SGPHGRFDARSMLAIL | -0.773 ± 0.64
152 | GEERHAAYTNWFFLRCLLTY | -0.046 ± 0.65
153 | VTLTYNYVRRTHMRRDVVAK | 0.6 ± 0.34
154 | FFRRDFFFYNSLGMH | 0.233 ± 1.4
155 | TLVLYVKRCWESGLISNECF | -0.699 ± 1.5
156 | RLPLHHTCYVIC | 0.468 ± 1.2
157 | IVFDSLRGCSF | inactive
158 | IFTLGVALFSIVM | 4.24 ± 0.067
159 | SGTDLRISNHAT | inactive
160 | FRLRL | 0.019 ± 0.83
161 | MLLWVWMEFY | 0.991 ± 0.33
162 | DMTNAVCTRLNFIRLSTLMK | 0.041 ± 0.32
163 | TISGLFLSRLYSKTMGGC | 1.89 ± 0.62
164 | NLSSTEYAFNISDGEKRHED | 0.186 ± 0.9
165 | GRGRKVYLVDLGSGL | -0.285 ± 0.53
166 | DLLLRSSTSTVVCIMNRTTS | 3.94 ± 0.076
167 | SCTVLWDKFDRLLWCSK | inactive
168 | VEFYRYFGWCPNYLPQHQWL | -0.148 ± 0.56
169 | RLWNSRWFPGNLNCWVKLEW | 0.044 ± 1.1

From the supplement of paper PMC12042874
